{"source": "patent US20120270914A1", "about": "“SPLIT-LUCIFERASE C-MYC SENSOR AND USES THEREOF” (THE BOARD OF TRUSTEES OF THE LELAND STANFORD JUNIOR …, priority 2011, published 2012)", "molecular_target": "NFL-c-Myc T581 (firefly) [luciferase: P08659]", "sequence (P08659 other isoform, or with tags, fused parts or gaps)": "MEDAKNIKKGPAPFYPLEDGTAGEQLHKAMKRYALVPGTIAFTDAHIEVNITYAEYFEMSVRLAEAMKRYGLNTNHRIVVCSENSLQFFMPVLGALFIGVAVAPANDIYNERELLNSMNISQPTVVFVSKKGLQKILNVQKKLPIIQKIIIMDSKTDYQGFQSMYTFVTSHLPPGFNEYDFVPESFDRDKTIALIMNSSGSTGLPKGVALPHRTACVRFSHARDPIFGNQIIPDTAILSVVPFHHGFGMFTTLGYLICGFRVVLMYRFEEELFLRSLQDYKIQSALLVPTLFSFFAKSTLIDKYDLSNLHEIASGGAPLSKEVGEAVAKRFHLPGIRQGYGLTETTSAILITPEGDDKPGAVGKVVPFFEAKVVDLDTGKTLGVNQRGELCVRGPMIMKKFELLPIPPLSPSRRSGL", "assay": "cell-based or functional assay", "data": [{"binder": "GSK 35-433-CFL, P49841 35-420 (protein, not shown: large carriers, here or on the partner: phosphorylation partially abolished (T58 cannot be phosphorylated)) SKVTTVVATPGQGPDRPQEVSYTDTKVIGNGSFGVVYQAKLCDSGELVAIKKVLQDKRFKNRELQIMRKLDHCNIVRLRYFFYSSGEKKDEVYLNLVLDYVPETVYRVARHYSRAKQTLPVIYVKLYMYQLFRSLAYIHSFGICHRDIKPQNLLLDPDTAVLKLCDFGSAKQLVRGEPNVSYICSRYYRAPELIFGATDYTSSIDVWSAGCVLAELLLGQPIFPGDSGVDQLVEIIKVLGTPTREQIREMNPNYTEFKFPQIKAHPWTKDSSGTGHFTSGVRVFRPRTPPEAIALCSRLLEYTPTARLTPLEACAHSFFDELRDPNVKLPNGRDTPALFNFTTQELSSNPPLATILIPPHARIQAAASTPTNATAASDANTGDRGQTNNAASASASNST", "values": [{"measurement": "complemented FL activity of SKBR3 xenografts in nude mice, normalized to hRL activity, compared with pcDNA3.1(+) vector", "value": 4.7, "unit": "fold"}]}]}
